B1: LICR-2-Ig (Fc fusion, murine)
chain: RPRLAPPQNVTLLSQNFSVYLTWLPGLGNPQDVTYFVAYQSSPTRRRWREVEECAGTKELLCSMMCLKKQDLYNKFKGRVRTVSPSSKSPWVESEYLDYLFEVEPAPPVLVLTQTEEILSANATYQLPPCMPPLDLKYEVAFWKEGAGNKTLFPVTPHVTPHGQPVQITLQPAASEHHCLSARTIYTFSVPKYSKFSKPTCFLLEVPEPRIPKPSTPPGSSCPPGNILGGPSVFIFPPKPKDALMISLTPKVTCVVVDVSEDDPDVHVSWFVDNKEVHTAWTQPREAQYNSTFRVVSALPIQHQDWMRGKEFKCKVNNKALPAPIERTISKPKGRAQTPQVYTIPPPREQMSKKKVSLTCLVTNFFSEAISVEWERNGELEQDYKNTPPILDSDGTYFLYSKLTVDTDSWLQGEIFTCSVVHEALHNHHTQKNLSRSPGK
notes: domain: hinge, and the CH2 and CH3 domains; Used as unpurified supernatant of transfected HEK293-EBNA cells
B2: recombinant AK155 (ligand, human, UniProt Q9NPH9 22-171, looked up)
chain: KHKQSSFTKSCYPRGTLSQAVDALYIKAAWLKATIPEDRIKNIRLLKKKTKKQFMKNCQFQEQLLSFFMEDVFGQLQLQGCKKIRFVEDFHSLRQKLSHCISCASSAREMKSITRMKRIFYRIGNKGIYKAISELDILLSWIKKLLESSQ
notes: Coated on the ELISA plate; The assay paragraph says only 'recombinant AK155'
B3: IL-10R-Ig (Fc fusion, UniProt Q13651 22-235, looked up)
chain: HGTELPSPPSVWFEAEFFHHILHWTPIPNQSESTCYEVALLRYGIESWNSISNCSQTLSYDLTAVTLDLYHSNGYRARVRAVDGSRHSNWTVTNTRFSVDEVTLTVGSVNLEIHNGFILGKIQLPRPKMAPANDTYESIFSHFREYEIAIRKVPGNFTFTHKKVKHENFSLLTSGEVGEFCVQVKPSVASRSNKGMWSKEECISLTRQYFTVTN
notes: Control; Used as supernatant of cells transfected with IL-10R-Ig fusion cDNA; The construct is not described; also called IL-10R-Ig fusion; not shown: Ig part of the control fusion is not described
B4: recombinant human IL-22 (ligand, UniProt Q9GZX6 34-179, looked up)
chain: APISSHCRLDKSNFQQPYITNRTFMLAKEASLADNNTDVRLIGEKLFHGVSMSERCYLMKQVLNFTLEEVLFPQSDRFQPYMQEVVPFLARLSNRLSTCHIEGDDLHIQRNVQKLKDTVKKLGESGEIKAIGELDLLFMSLRNACI
notes: also called IL-TIF

What was measured:
bovine serum albumin [1] = target: T1, bovine serum albumin (bovine, UniProt P02769 25-607); assay: ELISA, plate coated with BSA, 50 µl supernatant, anti-murine Ig-peroxidase detection
T1 construct: Control coating protein; also called BSA
Protocol: (§1) Interaction analysis was carried out via ELISA. In brief, plates were coated with either recombinant AK155; Knappe, et al., J. Virol 74:3881-7 (2000), incorporated by reference, recombinant human IL-22, or 0.02 μg/ml of bovine serum albumin, and incubated with the test sample overnight at 4° C. The test substance, in all cases, was mixed in 20 mM Tris glycine buffer containing 30 mM NaCl, pH 9.2. After washing in PBS buffer plus Tween 20 (1×10⁻⁴ v/v), plates were blocked with PBS plus 1% BSA for 4 hours. 50 μl of supernatant derived from cells transfected with LICR-2 or with control supernatant referred to supra were added, and the plates were incubated for 2 hours, at 37° C. Bound LICR-2-Ig was detected using anti-murine Ig polyclonal antibodies coupled to peroxidase. The reaction was developed by adding 100 μl of TMB (1.25 mM), followed by 20 μl of H₂SO₄ (2M) to stop the reaction. Absorbance was measured at 450 nm.

IL-10R-Ig [2] = target: B3; assay: ELISA, plate coated with recombinant AK155, 50 µl control supernatant, anti-murine Ig-peroxidase detection
Protocol: as §1

bovine serum albumin [3] = target: T1, bovine serum albumin; assay: ELISA, plate coated with BSA, 50 µl control supernatant, anti-murine Ig-peroxidase detection
Protocol: as §1

LICR-2-Ig = target: B1; assay: ELISA, plate coated with recombinant human IL-22, 50 µl supernatant, anti-murine Ig-peroxidase detection
Protocol: as §1

IL-10R-Ig [4] = target: B3; assay: ELISA, plate coated with recombinant human IL-22, 50 µl control supernatant, anti-murine Ig-peroxidase detection
Protocol: as §1

T1 sequence (P02769 25-607 limits assumed): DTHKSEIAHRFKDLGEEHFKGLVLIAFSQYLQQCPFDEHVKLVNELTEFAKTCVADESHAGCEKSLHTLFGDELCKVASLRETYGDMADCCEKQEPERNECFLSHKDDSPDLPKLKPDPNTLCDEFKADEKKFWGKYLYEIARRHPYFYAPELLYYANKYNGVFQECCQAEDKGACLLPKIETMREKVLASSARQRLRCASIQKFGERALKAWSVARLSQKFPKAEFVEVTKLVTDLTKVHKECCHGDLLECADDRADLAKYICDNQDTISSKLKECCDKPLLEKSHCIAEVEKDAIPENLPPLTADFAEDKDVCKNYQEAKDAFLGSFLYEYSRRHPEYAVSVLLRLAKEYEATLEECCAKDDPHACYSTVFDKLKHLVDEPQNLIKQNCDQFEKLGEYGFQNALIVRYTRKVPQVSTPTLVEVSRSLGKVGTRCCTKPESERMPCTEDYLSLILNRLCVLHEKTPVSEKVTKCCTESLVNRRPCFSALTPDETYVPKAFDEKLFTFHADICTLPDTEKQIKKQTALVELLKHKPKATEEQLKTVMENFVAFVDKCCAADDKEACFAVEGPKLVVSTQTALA

Binder: B1
- binding result (bovine serum albumin [1]): no binding (tested: 0.02 µg/ml BSA (coating))

Binder: B2
- binding result (IL-10R-Ig [2]): no binding

Binder: B3
- binding result (bovine serum albumin [3]): no binding (tested: 0.02 µg/ml BSA (coating))

Binder: B4
- binding result (LICR-2-Ig): no binding
- binding result (IL-10R-Ig [4]): no binding
